Laboratory results: patent publication US20220403048A1, “BINDING MOLECULES TO ARGINASE II [ARG2]” (Cancer Research Technology Limited, priority 2019, published 2022)
Numbering of substitutions follows the chain as printed.

T1: ARG2 (Homo sapiens, UniProt P78540)
T1 sequence (P78540 23-354): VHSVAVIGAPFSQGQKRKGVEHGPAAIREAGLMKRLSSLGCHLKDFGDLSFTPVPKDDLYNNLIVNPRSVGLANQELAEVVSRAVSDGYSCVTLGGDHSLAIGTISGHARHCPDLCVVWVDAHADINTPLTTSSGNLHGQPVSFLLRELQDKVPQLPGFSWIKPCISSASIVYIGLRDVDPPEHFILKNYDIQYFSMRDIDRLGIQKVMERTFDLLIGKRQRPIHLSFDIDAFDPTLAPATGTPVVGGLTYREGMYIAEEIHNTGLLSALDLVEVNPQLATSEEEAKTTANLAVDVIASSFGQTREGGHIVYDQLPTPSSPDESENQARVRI

T2: human ARG1 (Homo sapiens, UniProt P05089)
T2 construct: Avi tag (N); His10 (after a GGG linker) (C); made in house; host or cells: E. coli BL21 (DE3)
T2 sequence (P05089 with tags, fused parts or gaps): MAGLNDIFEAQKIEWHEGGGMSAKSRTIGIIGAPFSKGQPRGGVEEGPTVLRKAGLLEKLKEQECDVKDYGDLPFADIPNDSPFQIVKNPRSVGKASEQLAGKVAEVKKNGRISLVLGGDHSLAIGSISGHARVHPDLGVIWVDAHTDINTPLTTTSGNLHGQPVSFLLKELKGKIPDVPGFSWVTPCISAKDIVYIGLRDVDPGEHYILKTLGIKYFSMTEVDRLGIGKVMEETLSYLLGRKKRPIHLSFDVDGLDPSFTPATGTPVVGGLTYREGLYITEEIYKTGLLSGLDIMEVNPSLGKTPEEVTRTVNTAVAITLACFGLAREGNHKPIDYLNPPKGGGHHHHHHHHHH

B1: C0021061: anti-ARG2 antibody, first generation lead, VH SEQ ID NO: 62, VL SEQ ID NO: 67 (antibody, listed as Homo sapiens, V domains shown)
VH: EVQLLESGGGLVQPGGSLRLSCAASGFTFSSYAMSWVRQAPGKGLEWVSAKPTDAGSTYYADSVKGRFTISRDNSKNTLYLQMNSLRAEDTAVYYCARLRADLGLYMDLWGRGTLVTVSS
VL: QSVLTQPPSVSAAPGQKVTISCSGSSSNIGNHYVSWYQQLPGTAPKLLIYNTVYPKSGIPDRFSGSKSGTSATLGITGLQTGDEADYYCGTWDSSLSALVFGGGTKLTVL
modifications: C0021061
B2: C0021065: anti-ARG2 antibody, VH SEQ ID NO: 72, VL SEQ ID NO: 77 (antibody, listed as Homo sapiens, V domains shown)
VH: EVQLLESGGGLVQPGGSLRLSCAASGFTFSSYAMSWVRQAPGKGPEWVSAISGFSPYYADSVKGRFTISRDNSRNTLYLQMNSLRAEDTAVYYCARLRADLGLYMDLWGRGTLVTVSS
VL: B1 VL with N51D, V53D, Y54H, P55M, K56A
modifications: C0021065
B3: C0021092: anti-ARG2 antibody, VH SEQ ID NO: 92, VL SEQ ID NO: 97 (antibody, listed as Homo sapiens, V domains shown)
VH: B1 VH with S31R, K51H, P52T, T53H, D54S, A55P
VL: B1 VL with T52S, Y54A, P55R, K56P
modifications: C0021092
B4: C0021139: anti-ARG2 antibody, VH SEQ ID NO: 212, VL SEQ ID NO: 217 (antibody, listed as Homo sapiens, V domains shown)
VH: EVQLLESGGGLVQPGGSLRLSCAASGFTFQYDYQVWVRQAPGKGLEWVSAISGSGGSTYYADSVKGRFTISRDNSKNTLYLQMNSLRAEDTAVYYCARLRADLGLYMDLWGRGTLVTVSS
VL: B1 VL with N51D, T52N, V53S, Y54E, P55R, K56T, S94E, S95L, L96T, A98N
modifications: C0021139
B5: C0021133: anti-ARG2 antibody, VH SEQ ID NO: 192, VL SEQ ID NO: 197 (antibody, listed as Homo sapiens, V domains shown)
VH: B4 VH with Q30R, Y33H, Q34H
VL: B1 VL with I20V, N51D, V53T, Y54V, P55L, K56S, S94E, S95L, L96T, A98N
modifications: C0021133
B6: C0021022: anti-ARG2 antibody, VH SEQ ID NO: 42, VL SEQ ID NO: 47 (antibody, listed as Homo sapiens, V domains shown)
VH: B2 VH with R74K
VL: B1 VL with N51D, T52N, V53S, Y54E, P55R, K56P
modifications: C0021022
B7: C0021158: anti-ARG2 antibody, second generation lead, VH SEQ ID NO: 272, VL SEQ ID NO: 277 (antibody, listed as Homo sapiens, V domains shown)
VH: EVQLLESGGGLVQPGGSLRLSCAASGFTFRYEVAAWVRQAPGKGLEWVSAISGPIPKGYYADSVKGRFTISRDNSKNTLYLQMNSLRAEDTAVYYCARLRADLGLYMDLWGRGTLVTVPS
VL: QSVLTQPPSVSAAPGQKVTISCSGSSSNIGNHYVSWYQQLPGTAPKLLIYDNSERTAGVPDRFSGSKSGTSATLGITGLQTGDEADYYCGTWDELTSNLVFGGGTKLTVL
modifications: C0021158
B8: C0021177: anti-ARG2 antibody, VH SEQ ID NO: 322, VL SEQ ID NO: 327 (antibody, listed as Homo sapiens, V domains shown)
VH: B7 VH with I55A, P119S
VL: B7 VL with V3E, S9T, V10A, N52T, S53T, E54V, R55L, T56S, A57S, V59I
modifications: C0021177
B9: C0021180: anti-ARG2 antibody, VH SEQ ID NO: 332, VL SEQ ID NO: 337 (antibody, listed as Homo sapiens, V domains shown)
VH: B7 VH with P119S
VL: QSVLTQPPTVSAAPGRKVTISCSGSSSNIGDHHVSWYQQLPGAAPKLLIYDTDHMASGIPDRFSGSRSGTSATLGITGLQTGDEADYYCGTWDSSLSALVFGGGTKLTVL
modifications: C0021180
B10: C0021158 IgG: anti-ARG2 antibody, VH SEQ ID NO: 282, VL SEQ ID NO: 287; IgG and Fab versions carry these sequences (antibody, listed as Homo sapiens, V domains shown)
VH: B7 VH with P119S
VL: B7 VL
modifications: C0021158 IgG
B11: C0021181: anti-ARG2 antibody, VH SEQ ID NO: 342, VL SEQ ID NO: 347 (antibody, listed as Homo sapiens, V domains shown)
VH: B4 VH with Q13R, G26E, Q30R, Q34H, G66S
VL: B7 VL with T19A, I20V, N31S, A57S, V59I, K106R
modifications: C0021181

Target: T1, ARG2
Experiment: T cell proliferation assay (BrdU, 96 hours) with exogenous ARG2, improved variant IgGs
Type: cell-based
Settings: In Absence of rhARG2; 96 hours; hIgG1
Procedure: This assay served to provide evidence of improved functional efficacy for each affinity-matured antibody in comparison to the parent IgG, C0020187 (FIG. 12).
Lead optimisation clones were tested to an endpoint treatment time of 96 hours and the BrdU Cell Proliferation Kit (Roche, France; Cat: 11647229001) was used according to the manufacturer's instructions. R347 was used as the irrelevant control. All clones tested n=2.
Leukocyte cones underwent Ficoll Plaque (GE, Sweden; Cat: 17-1440-02) gradient separation, PBMC's were extracted and pan T cell population isolated by negative selection using the Human T Cell Enrichment Kit (Stemcell Technologies, France; Cat: 19051) according to the manufacturer's instructions.
40000 cells/well were seeded in complete growth media (RMPI 1640, 5% Human Serum Albumin) into a 96 well clear TC treated microplate (Greiner-Bio One, Germany; Cat: 655180). T cells were activated by the addition of ImmunoCult CD3/CD28 (Stemcell Technologies, France; Cat: 10971) at a dilution of 1:40 directly into wells and the plate incubated 37° C., 5% CO2 for 45 minutes.
To determine EC50's of test antibodies, a dilution series was created in sterile TBS/NaCl Buffer at 10× the final assay concentration added to the assay plate containing cells. Plate was incubated for 30 minutes at 37° C., 5% CO2.
ARG2 was added to relevant wells of the plate at a final concentration of 15 μg/ml. The equivalent volume of ARG2 vehicle and test antibody vehicle was added to relevant control wells. The total volume in each well was 200 μl. Cells were treated with test antibodies for a total of 96 hours at 37° C., 5% CO2. Antibodies were tested alongside C0020187 (parent IgG) as a positive control and R347 (irrelevant isotype control antibody) as a negative control.
Assessment of T cell proliferation was performed using the BrdU Cell Proliferation ELISA Kit (Roche, Germany; Cat: 000000011647229001). BrdU labelling reagent was added after 78 hours of antibody treatment and the plate further incubated for 18 hours at 37° C., 5% CO2. The remainder of the assay was performed according to the manufacturer's instructions.
Calculated data was expressed as % of control (Equation 3) and graphical plots were constructed using a four parameter fit and EC50's determined using model 205 in XLFit (IDBS, UK).
All test sample data was corrected for background (mean of no cell control)
% Control=100*((Test Sample−Mean Positive Control)/(Mean Negative Control−Mean Positive Control)) Equation 3:
Mean Positive Control=T Cells in absence of ARG2
Mean Negative Control=T Cells in presence of ARG2
This assay served to provide evidence of improved functional efficacy for each affinity-matured antibody in comparison to the parent IgG, C0020187 (FIG. 14, Table 19). R347 was used as the irrelevant control. All clones tested n=2. Reference section 2.9 for methodology.

EC50	Maximum % Proliferation	Molecule
< 0.9 nM	99%	B1
< 0.9 nM	101%	B2
< 0.9 nM	92%	B3
< 1 nM	84%	B4
< 0.7 nM	90%	B5
< 1 nM		B6

Same assay, conditions: In Absence of rhARG2; hIgG1; top conc 2 μM; n=2

EC50	Maximum % Proliferation	Molecule
< 0.9 nM	93%	B1
< 0.9 nM	94%	B7
< 0.9 nM	90%	B8
< 0.9 nM	96%	B9

Target: T2, human ARG1
Experiment: Bio-Layer Interferometry (OctetRED) binding, human ARG1
Settings: Fab analyte up to 120 nM, screening assay on anti-His surface
Procedure: The affinity of binding between the Fab of C0020187 and human ARG2, cynomolgus ARG2 and human ARG1 was estimated using assays in which the biotinylated ARG antigen was captured on a streptavidin sensor tip. A fresh sensor tip was used for each measurement and no regeneration was used. A series of dilutions of the C0020187 Fab (3.25-240 nM) were individually placed in contact with the ligand surface for a sufficient amount of time to observe sensorgrams that could be fitted to an appropriate binding model with confidence (typically 5 minutes), followed by an appropriate length of dissociation time (typically 10 minutes). Blank reference (0 nM Fab) data were subtracted from each dataset to reduce the impact of any buffer artefacts or non-specific binding effects. An appropriate binding model was then fitted simultaneously to the data from each analyte titration using the Octet Evaluation software.
(§1) The binding of affinity-matured antibodies to human ARG1 was also tested on the OctetRED system using a screening assay which stably captures […] as the ligand on an anti-His surface. The Fabs were typically tested in an analyte range of 1.8 to 120 nM, with an association time of 5 minutes and a dissociation time of 10 minutes. Sensors were regenerated using 10 mM glycine pH 1.5 after each cycle.
as §1, with “Binding” for “The binding”, “the second-generation” for “affinity-matured”, “ARG” for “ARG1”, “were” for “were typically”, “as” for “in an”, “up” for “range of 1.8”

Results, binding to human ARG1 (BLI)	Molecule
No binding observed	B1
No binding observed	B2
No binding observed	B3
No binding observed	B10
No binding observed	B4
No binding observed	B5
No binding observed	B11
No binding observed	B8
No binding observed	B6
No binding observed	B9
